These results are taken from article PMC3091828.

Assay [1] concerns the target CL-arrestin-2-L33C, bimane-labeled (UniProt P17870). Briefly: fluorescence polarisation. On the technique in general: Fluorescence polarisation rises when a labelled molecule tumbles more slowly, as on binding a larger partner.
For assay [2] the target is unchanged. Kind of assay: fluorescence polarisation. This is another data set of the same source.

Where two headings read alike, the source gives them in different places.

Chain of MBP-parkin (O60260 whole entry): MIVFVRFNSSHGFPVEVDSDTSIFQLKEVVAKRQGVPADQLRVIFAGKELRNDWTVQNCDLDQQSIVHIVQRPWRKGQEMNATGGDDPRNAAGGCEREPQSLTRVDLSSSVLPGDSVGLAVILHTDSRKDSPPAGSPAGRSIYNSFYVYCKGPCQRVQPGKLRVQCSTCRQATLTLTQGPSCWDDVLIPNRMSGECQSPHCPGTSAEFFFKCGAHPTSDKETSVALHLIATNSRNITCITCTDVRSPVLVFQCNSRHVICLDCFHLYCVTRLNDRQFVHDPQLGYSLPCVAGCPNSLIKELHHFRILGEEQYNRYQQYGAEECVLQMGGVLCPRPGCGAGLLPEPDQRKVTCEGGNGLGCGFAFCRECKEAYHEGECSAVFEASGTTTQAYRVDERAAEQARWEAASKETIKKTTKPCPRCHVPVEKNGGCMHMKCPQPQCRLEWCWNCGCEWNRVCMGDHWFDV

As to “MBP-parkin (from UniProt O60260 1-465) (enzyme)”, the Kd in assay [1] worked out at 20.1 µM; in assay [2], 19 µM.

The Kd is the equilibrium constant for the complex coming apart. Lower therefore signals tighter binding.
